# Test results from patent publication US20250243281A1.
# What was measured:
# human insulin (human) = human insulin (human) (UniProt P01308); test: polyspecificity ELISA, coated insulin, 100 nM antibody
# BSA (bovine) = BSA (bovine) (UniProt P02769); test: polyspecificity ELISA, BSA-blocked control wells, 100 nM antibody
# FcRn = FcRn (UniProt P55899); test: BLI Octet, biotinylated FcRn on streptavidin sensor, pH 5.0, global 1:1 fit
# FcRn, sequence (P55899 24-297 limits assumed, form in doubt, chain 1 of 2): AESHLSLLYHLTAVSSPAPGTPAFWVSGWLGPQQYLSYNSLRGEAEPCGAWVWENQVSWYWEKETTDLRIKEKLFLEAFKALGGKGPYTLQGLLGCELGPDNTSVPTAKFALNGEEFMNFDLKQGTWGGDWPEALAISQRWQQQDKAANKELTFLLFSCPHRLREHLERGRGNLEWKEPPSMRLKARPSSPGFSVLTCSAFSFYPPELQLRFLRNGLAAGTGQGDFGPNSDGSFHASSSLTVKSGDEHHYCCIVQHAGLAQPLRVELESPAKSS
# FcRn, sequence (chain, as listed by the source limits assumed, form in doubt, chain 2 of 2): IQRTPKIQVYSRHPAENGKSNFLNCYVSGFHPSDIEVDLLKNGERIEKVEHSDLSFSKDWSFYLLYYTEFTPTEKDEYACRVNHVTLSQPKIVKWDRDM
# human insulin (human), sequence (P01308 25-54 limits assumed, chain 1 of 2): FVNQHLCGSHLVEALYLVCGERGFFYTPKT
# human insulin (human), sequence (P01308 90-110 limits assumed, chain 2 of 2): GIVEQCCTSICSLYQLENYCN
# BSA (bovine), sequence (P02769 25-607 limits assumed): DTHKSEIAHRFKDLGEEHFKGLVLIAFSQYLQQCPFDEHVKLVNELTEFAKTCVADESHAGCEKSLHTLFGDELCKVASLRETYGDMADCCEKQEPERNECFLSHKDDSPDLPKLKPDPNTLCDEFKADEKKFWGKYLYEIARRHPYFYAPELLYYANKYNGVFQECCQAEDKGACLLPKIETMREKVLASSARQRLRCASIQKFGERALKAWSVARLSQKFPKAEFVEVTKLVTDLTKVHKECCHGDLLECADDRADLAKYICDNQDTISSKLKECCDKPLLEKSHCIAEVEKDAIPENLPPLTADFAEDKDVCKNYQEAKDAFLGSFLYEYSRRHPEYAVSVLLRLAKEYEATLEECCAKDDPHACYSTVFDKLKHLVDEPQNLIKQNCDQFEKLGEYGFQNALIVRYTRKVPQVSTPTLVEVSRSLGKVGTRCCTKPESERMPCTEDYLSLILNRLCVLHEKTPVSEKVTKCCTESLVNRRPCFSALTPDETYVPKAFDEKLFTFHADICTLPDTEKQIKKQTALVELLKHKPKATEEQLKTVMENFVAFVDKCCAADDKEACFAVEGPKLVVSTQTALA
Substance,A450 nm (human insulin (human)),Norm (signal over AdalimumAb) (human insulin (human)) [fold],A450 nm (BSA (bovine)),Kd (FcRn) [nM]
Ustekinumab (antibody),0.16,2.29,0.1,
wild type human IgG1 antibody,,,,0.13
